These binders were tested against T1, Recombinant Human DLL4 (delta-like protein 4) (human, UniProt Q9NR61 27-524) (assay: SPR, Fab on recombinant human DLL4).
T1 construct: Bought recombinant human DLL4 (R&D Systems Cat#1506-D4/CF); also called rHuman DLL4; Delta-like ligand 4

Row | Kd [nM] | koff [s⁻¹] | kon [M⁻¹ s⁻¹] | Binder
1 | 730 | 0.101 | 163000 | Fab VH1-46_IGHD6-6*01_IGHJ1*01 & L6_IGKJ1*01 (Fab, V domains shown, Fab expressed in E. coli; VH was cloned into Plasmid A (heavy chain CH1 constant region, His6 and Flag tags) and VL into Plasmid C (kappa CL); also called parental; wildtype) VH: QVQLVQSGAEVKKPGASVKVSCKASGYTFTSYYMHWVRQAPGQGLEWMGIINPSGGSTSYAQKFQGRVTMTRDTSTSTVYMELSSLRSEDTAVYYCAREEYSSSSAEYFQHWGQGTLVTVSS VL: not shown
2 | 380 | 0.19 | 500000 | Fab VH1-46_IGHD6-6*01_IGHJ1*01 S104F & L6_IGKJ1*01 (Fab, V domains shown, Fab with CH1 (Plasmid A, His6 and Flag tags) and kappa CL (Plasmid C)) VH: QVQLVQSGAEVKKPGASVKVSCKASGYTFTSYYMHWVRQAPGQGLEWMGIINPSGGSTSYAQKFQGRVTMTRDTSTSTVYMELSSLRSEDTAVYYCAREEYSSFSAEYFQHWGQGTLVTVSS VL: not shown
3 | 2.7 | 0.00113 | 430000 | Fab VH1-46_IGHD6-6*01_IGHJ1*01 S102A/S103P/S104F/H111F I51V/N52L/S54T/G56H (APFF VLTH) & L6_IGKJ1*01 S28N/S30D/S31H (NDH) (Fab, V domains shown, Fab with CH1 (Plasmid A, His6 and Flag tags) and kappa CL (Plasmid C); also called H:APFF VLTH & L:NDH) VH: QVQLVQSGAEVKKPGASVKVSCKASGYTFTSYYMHWVRQAPGQGLEWMGIVLPTGHSTSYAQKFQGRVTMTRDTSTSTVYMELSSLRSEDTAVYYCAREEYAPFSAEYFQFWGQGTLVTVSS VL: EIVLTQSPATLSLSPGERATLSCRASQNVDHYLAWYQQKPGQAPRLLIYDASNRATGIPARFSGSGSGTDFTLTISSLEPEDFAVYYCQQRSNWPPWTFGQGTKVEIKR
4 | 32.7 | 0.0101 | 351000 | Fab VH1-46_IGHD6-6*01_IGHJ1*01 S102A/S103P/S104F/H111F G56H (APFF G56H) & L6_IGKJ1*01 (Fab, V domains shown, Fab with CH1 (Plasmid A, His6 and Flag tags) and kappa CL (Plasmid C)) VH: QVQLVQSGAEVKKPGASVKVSCKASGYTFTSYYMHWVRQAPGQGLEWMGIINPSGHSTSYAQKFQGRVTMTRDTSTSTVYMELSSLRSEDTAVYYCAREEYAPFSAEYFQFWGQGTLVTVSS VL: not shown
5 | 93.1 | 0.0317 | 340000 | Fab VH1-46_IGHD6-6*01_IGHJ1*01 S102A/S103P/S104F/H111Y (APFY) & L6_IGKJ1*01 (Fab, V domains shown, Fab with CH1 (Plasmid A, His6 and Flag tags) and kappa CL (Plasmid C)) VH: QVQLVQSGAEVKKPGASVKVSCKASGYTFTSYYMHWVRQAPGQGLEWMGIINPSGGSTSYAQKFQGRVTMTRDTSTSTVYMELSSLRSEDTAVYYCAREEYAPFSAEYFQYWGQGTLVTVSS VL: not shown
6 | 112 | 0.0392 | 350000 | Fab VH1-46_IGHD6-6*01_IGHJ1*01 S102A/S103P/S104F (APF) & L6_IGKJ1*01 S31K (Fab, V domains shown, Fab with CH1 (Plasmid A, His6 and Flag tags) and kappa CL (Plasmid C)) VH: QVQLVQSGAEVKKPGASVKVSCKASGYTFTSYYMHWVRQAPGQGLEWMGIINPSGGSTSYAQKFQGRVTMTRDTSTSTVYMELSSLRSEDTAVYYCAREEYAPFSAEYFQHWGQGTLVTVSS VL: EIVLTQSPATLSLSPGERATLSCRASQSVSKYLAWYQQKPGQAPRLLIYDASNRATGIPARFSGSGSGTDFTLTISSLEPEDFAVYYCQQRSNWPPWTFGQGTKVEIKR
7 | 70.6 | 0.03 | 425000 | Fab VH1-46_IGHD6-6*01_IGHJ1*01 S102A/S103P/S104F/H111F (APFF) & L6_IGKJ1*01 (Fab, V domains shown, Fab with CH1 (Plasmid A, His6 and Flag tags) and kappa CL (Plasmid C); also called H:APFF & L:wt) VH: QVQLVQSGAEVKKPGASVKVSCKASGYTFTSYYMHWVRQAPGQGLEWMGIINPSGGSTSYAQKFQGRVTMTRDTSTSTVYMELSSLRSEDTAVYYCAREEYAPFSAEYFQFWGQGTLVTVSS VL: not shown
8 | 122 | 0.0492 | 405000 | Fab VH1-46_IGHD6-6*01_IGHJ1*01 S102A/S103P/S104F (APF) & L6_IGKJ1*01 (Fab, V domains shown, Fab with CH1 (Plasmid A, His6 and Flag tags) and kappa CL (Plasmid C); also called H:APF & L:wt; APF triple mutant) VH: QVQLVQSGAEVKKPGASVKVSCKASGYTFTSYYMHWVRQAPGQGLEWMGIINPSGGSTSYAQKFQGRVTMTRDTSTSTVYMELSSLRSEDTAVYYCAREEYAPFSAEYFQHWGQGTLVTVSS VL: not shown

The binders below were run against T2, Recombinant Human DLL4 (delta-like protein 4) (human, UniProt Q9NR61 27-524) (assay: ELISA, DLL4 coated on plate, Fab at 100 nM).
T2 construct: also called rHuman DLL4; Delta-like 4

Row | ELISA Signal-blank (100 nM Fab) | Binder
9 | 0.3 | Fab VH5-51_IGHD5-18*01>3_IGHJ4*01 G100K/G104T G24T/S28R/G35V & V3-4_IGLJ1*01 V91L/S96P T53I (Fab, V domains shown, Fab expressed in E. coli; heavy chain vector adds CH1 with His6 and Flag tags, light chain vector adds lambda CL; also called H:KT TRV & L:LP T53I) VH: EVQLVQSGAEVKKPGESLKISCKTSGYRFTSYWIVWVRQMPGKGLEWMGIIYPGDSDTRYSPSFQGQVTISADKSISTAYLQWSSLKASDTAMYYCARRKYSYTYDYFDYWGQGTLVTVSS VL: QTVVTQEPSFSVSPGGTVTLTCGLSSGSVSTSYYPSWYQQTPGQAPRTLIYSINTRSSGVPDRFSGSILGNKAALTITGAQADDESDYYCLLYMGPGISYVFGTGTKVTVL
10 | 0.12 | Fab VH5-51_IGHD5-18*01>3_IGHJ4*01 G100K/G104T G24T/S28R/G35V & V3-4_IGLJ1*01 V91L/S96P T53K (Fab, V domains shown, Fab expressed in E. coli; heavy chain vector adds CH1 with His6 and Flag tags, light chain vector adds lambda CL; also called H:KT TRV & L:LP T53K) VH: EVQLVQSGAEVKKPGESLKISCKTSGYRFTSYWIVWVRQMPGKGLEWMGIIYPGDSDTRYSPSFQGQVTISADKSISTAYLQWSSLKASDTAMYYCARRKYSYTYDYFDYWGQGTLVTVSS VL: QTVVTQEPSFSVSPGGTVTLTCGLSSGSVSTSYYPSWYQQTPGQAPRTLIYSKNTRSSGVPDRFSGSILGNKAALTITGAQADDESDYYCLLYMGPGISYVFGTGTKVTVL
11 | 0.29 | Fab VH5-51_IGHD5-18*01>3_IGHJ4*01 G100K/G104T G24T/S28R/G35V & V3-4_IGLJ1*01 V91L/S96P T53V (Fab, V domains shown, Fab expressed in E. coli; heavy chain vector adds CH1 with His6 and Flag tags, light chain vector adds lambda CL; also called H:KT TRV & L:LP T53V) VH: EVQLVQSGAEVKKPGESLKISCKTSGYRFTSYWIVWVRQMPGKGLEWMGIIYPGDSDTRYSPSFQGQVTISADKSISTAYLQWSSLKASDTAMYYCARRKYSYTYDYFDYWGQGTLVTVSS VL: QTVVTQEPSFSVSPGGTVTLTCGLSSGSVSTSYYPSWYQQTPGQAPRTLIYSVNTRSSGVPDRFSGSILGNKAALTITGAQADDESDYYCLLYMGPGISYVFGTGTKVTVL
12 | 0.22 | Fab VH5-51_IGHD5-18*01>3_IGHJ4*01 G100K/G104T G24T/S28R/G35V & V3-4_IGLJ1*01 V91L/S96P T53Y (Fab, V domains shown, Fab expressed in E. coli; heavy chain vector adds CH1 with His6 and Flag tags, light chain vector adds lambda CL; also called H:KT TRV & L:LP T53Y) VH: EVQLVQSGAEVKKPGESLKISCKTSGYRFTSYWIVWVRQMPGKGLEWMGIIYPGDSDTRYSPSFQGQVTISADKSISTAYLQWSSLKASDTAMYYCARRKYSYTYDYFDYWGQGTLVTVSS VL: QTVVTQEPSFSVSPGGTVTLTCGLSSGSVSTSYYPSWYQQTPGQAPRTLIYSYNTRSSGVPDRFSGSILGNKAALTITGAQADDESDYYCLLYMGPGISYVFGTGTKVTVL
13 | 0.18 | Fab VH5-51_IGHD5-18*01>3_IGHJ4*01 G100K/G104T G24T/S28R/G35V & V3-4_IGLJ1*01 V91L/S96P T53L (Fab, V domains shown, Fab expressed in E. coli; heavy chain vector adds CH1 with His6 and Flag tags, light chain vector adds lambda CL; also called H:KT TRV & L:LP T53L) VH: EVQLVQSGAEVKKPGESLKISCKTSGYRFTSYWIVWVRQMPGKGLEWMGIIYPGDSDTRYSPSFQGQVTISADKSISTAYLQWSSLKASDTAMYYCARRKYSYTYDYFDYWGQGTLVTVSS VL: QTVVTQEPSFSVSPGGTVTLTCGLSSGSVSTSYYPSWYQQTPGQAPRTLIYSLNTRSSGVPDRFSGSILGNKAALTITGAQADDESDYYCLLYMGPGISYVFGTGTKVTVL
14 | 0.11 | Fab VH5-51_IGHD5-18*01>3_IGHJ4*01 G100K/G104T G24T/S28R/G35V & V3-4_IGLJ1*01 V91L/S96P T53Q (Fab, V domains shown, Fab expressed in E. coli; heavy chain vector adds CH1 with His6 and Flag tags, light chain vector adds lambda CL; also called H:KT TRV & L:LP T53Q) VH: EVQLVQSGAEVKKPGESLKISCKTSGYRFTSYWIVWVRQMPGKGLEWMGIIYPGDSDTRYSPSFQGQVTISADKSISTAYLQWSSLKASDTAMYYCARRKYSYTYDYFDYWGQGTLVTVSS VL: QTVVTQEPSFSVSPGGTVTLTCGLSSGSVSTSYYPSWYQQTPGQAPRTLIYSQNTRSSGVPDRFSGSILGNKAALTITGAQADDESDYYCLLYMGPGISYVFGTGTKVTVL
15 | 0.15 | Fab VH5-51_IGHD5-18*01>3_IGHJ4*01 G100K/G104T G24T/S28R/G35V & V3-4_IGLJ1*01 V91L/S96P T53N (Fab, V domains shown, Fab expressed in E. coli; heavy chain vector adds CH1 with His6 and Flag tags, light chain vector adds lambda CL; also called H:KT TRV & L:LP T53N) VH: EVQLVQSGAEVKKPGESLKISCKTSGYRFTSYWIVWVRQMPGKGLEWMGIIYPGDSDTRYSPSFQGQVTISADKSISTAYLQWSSLKASDTAMYYCARRKYSYTYDYFDYWGQGTLVTVSS VL: QTVVTQEPSFSVSPGGTVTLTCGLSSGSVSTSYYPSWYQQTPGQAPRTLIYSNNTRSSGVPDRFSGSILGNKAALTITGAQADDESDYYCLLYMGPGISYVFGTGTKVTVL
16 | 0.39 | Fab VH5-51_IGHD5-18*01>3_IGHJ4*01 G100K/G104T G24T/S28R/G35V & V3-4_IGLJ1*01 V91L/S96P T53P (Fab, V domains shown, Fab expressed in E. coli; heavy chain vector adds CH1 with His6 and Flag tags, light chain vector adds lambda CL; also called H:KT TRV & L:LP T53P) VH: EVQLVQSGAEVKKPGESLKISCKTSGYRFTSYWIVWVRQMPGKGLEWMGIIYPGDSDTRYSPSFQGQVTISADKSISTAYLQWSSLKASDTAMYYCARRKYSYTYDYFDYWGQGTLVTVSS VL: QTVVTQEPSFSVSPGGTVTLTCGLSSGSVSTSYYPSWYQQTPGQAPRTLIYSPNTRSSGVPDRFSGSILGNKAALTITGAQADDESDYYCLLYMGPGISYVFGTGTKVTVL
17 | 0.18 | Fab VH5-51_IGHD5-18*01>3_IGHJ4*01 G100K/G104T G24T/S28R/G35V & V3-4_IGLJ1*01 V91L/S96P T53S (Fab, V domains shown, Fab expressed in E. coli; heavy chain vector adds CH1 with His6 and Flag tags, light chain vector adds lambda CL; also called H:KT TRV & L:LP T53S) VH: EVQLVQSGAEVKKPGESLKISCKTSGYRFTSYWIVWVRQMPGKGLEWMGIIYPGDSDTRYSPSFQGQVTISADKSISTAYLQWSSLKASDTAMYYCARRKYSYTYDYFDYWGQGTLVTVSS VL: QTVVTQEPSFSVSPGGTVTLTCGLSSGSVSTSYYPSWYQQTPGQAPRTLIYSSNTRSSGVPDRFSGSILGNKAALTITGAQADDESDYYCLLYMGPGISYVFGTGTKVTVL
